Test results: PMC11798907

What was measured:
Assay in all cases: EMSA
Conditions in all cases: LightShift Chemiluminescent EMSA kit protocol; 20 fmol biotin-labeled DNA, 4 pmol protein (where stated); buffer, salt, pH and temperature not stated
OsWRKY121 (Oryza sativa) = biological target: T1, OsWRKY121 (Oryza sativa) (UniProt Q75KW2)
T1 sequence: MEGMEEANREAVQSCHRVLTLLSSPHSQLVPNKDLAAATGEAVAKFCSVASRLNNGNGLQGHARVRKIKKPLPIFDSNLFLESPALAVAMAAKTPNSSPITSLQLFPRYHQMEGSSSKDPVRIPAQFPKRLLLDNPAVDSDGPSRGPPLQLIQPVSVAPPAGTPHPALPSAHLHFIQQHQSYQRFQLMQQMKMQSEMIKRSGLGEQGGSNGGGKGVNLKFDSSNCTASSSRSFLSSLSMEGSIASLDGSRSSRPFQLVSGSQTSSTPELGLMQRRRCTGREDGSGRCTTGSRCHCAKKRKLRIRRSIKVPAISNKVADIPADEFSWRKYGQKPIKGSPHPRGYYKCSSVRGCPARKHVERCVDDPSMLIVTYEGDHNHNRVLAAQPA

OsWRKY71 (Oryza sativa) = OsWRKY71 (Oryza sativa) (UniProt Q6QHD1)
[1] = test system: GmRAV1 (Glycine max), ORF:a1ee9a9b
Sequence of GmRAV1 (Glycine max), ORF:a1ee9a9b (chain, as listed by the source): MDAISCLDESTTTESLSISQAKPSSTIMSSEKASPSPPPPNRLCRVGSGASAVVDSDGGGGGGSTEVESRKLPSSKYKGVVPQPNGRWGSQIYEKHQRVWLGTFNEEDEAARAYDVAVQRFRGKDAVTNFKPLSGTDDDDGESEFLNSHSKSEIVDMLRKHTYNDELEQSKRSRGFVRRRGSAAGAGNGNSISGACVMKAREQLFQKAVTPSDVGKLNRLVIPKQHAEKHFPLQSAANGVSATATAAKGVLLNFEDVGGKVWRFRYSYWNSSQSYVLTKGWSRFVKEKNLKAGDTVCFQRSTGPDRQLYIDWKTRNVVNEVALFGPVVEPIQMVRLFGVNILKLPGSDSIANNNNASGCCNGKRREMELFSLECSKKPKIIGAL

Sequence of OsWRKY71 (Oryza sativa) (Q6QHD1 whole entry): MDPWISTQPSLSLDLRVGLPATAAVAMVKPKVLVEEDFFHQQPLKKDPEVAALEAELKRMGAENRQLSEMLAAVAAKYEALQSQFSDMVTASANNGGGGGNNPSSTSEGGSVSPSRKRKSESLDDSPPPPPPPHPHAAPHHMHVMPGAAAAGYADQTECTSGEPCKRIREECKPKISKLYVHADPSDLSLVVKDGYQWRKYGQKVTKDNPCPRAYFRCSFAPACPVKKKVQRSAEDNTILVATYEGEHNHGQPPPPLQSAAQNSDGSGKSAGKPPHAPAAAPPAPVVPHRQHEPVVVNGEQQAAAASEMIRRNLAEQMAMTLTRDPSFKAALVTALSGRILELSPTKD

Sequence | binding (OsWRKY121 (Oryza sativa)) | binding (OsWRKY71 (Oryza sativa)) | binding [1]
AACAGCTTGTTGACTGGCTCCCTAGAGCTTTTTGTAAGTTGATCATCGAAGTAGCTAGTTCTCTTCACTTATCAGTCATCACTGTTCTATGTTCTATCTGCATTTTCCTTGATTTTGTACTTTTCCTGAACGAAAGGACAATCCTTAGCCATCATAATGCTATGATCGACTTATTCTGAAGTCATCCGGCCTCGATCCT (double strand) [OsNF-YC4 promoter 198-bp] | binds |  | 
ACCAGAGTTCTTTTTCCCCCTCTTCTACATAAACGAAAACAGCTTGTTGACTGGCTCCCTAGAGCTTTTTGTAAGTTGATCATCGAAGTAGCTAGTTCTCTTCACTTATCAGTCATCACTGTTCTATGTTCTATCTGCATTTTCCTTGATTTTGTACTTTTCCTGAACGAAAGGACAATCCTTAGCCATCATAATGCTATGATCGACTTATTCTGAAGTCATCCGGCCTCGATCCTCTTTTGT (double strand) [OsNF-YC4 promoter P5] | binds | binds | 
AGCATTATGATGGCTAAGGATTGTCCTTTCGTTCAGGAAAAGTACAAAATCAAGGAAAATGCAGA (double strand) [OsNF-YC4 promoter P4] |  | no binding | 
CCCTAATATTGTGAACAAACTTTGTTGGTAATGTAAAAAAAATTAAAAGAAACAAGATTAAATTACGTATTTAATAATTTAAGATTAATGTTGTTTAATTTGATTTTTTAAATATTTATCTTTCTTTTGAATTTGATTCTTTAGTTCAC (double strand) [GmNF-YC4-1 promoter P6] |  |  | binds
GATTAATAATATCCCTAATATTGTGAACAAACTTTGTTGGTAATGTAAAAAAAATTAAAAGAAACAAGATTAAATTACGTATTTAATAATTTAAGATTAA (double strand) [GmNF-YC4-1 promoter P3] |  |  | binds
GGATTACATTGAGTAATGCACATAAATTATTATAAACCTTCCATATTTGTCTTCAACAAATAATCCTAAAAATTAATGTTAACAAAAACTGACCACCTATGTTTTTAAATTAAGAAAGCATG (double strand) [GmNF-YC4-1 promoter P2] |  |  | binds
GGCATTGACATGGATGGATGGAACACCCTCATAGTCACATGCCACAACAGAGTAACGCTAAACAAAATGTATTAACAAAAACTATAGGATCATGCTTTCTTAATTTAAAAACATAGG (double strand) [GmNF-YC4-1 promoter P1] |  |  | no binding
GGCATTGACATGGATGGATGGAACACCCTCATAGTCACATGCCACAACAGAGTAACGCTAAACAAAATGTATTAACAAAAACTATAGGATCATGCTTTCTTAATTTAAAAACATAGGTGGTCAGTTTTTGTTAACATTAATTTTTAGGATTATTTGTTGAAGACAAATATGGAAGGTTTATAATAATTTATGTGCATTACTCAATGTAATCC (double strand) [GmNF-YC4-1 promoter P5] |  |  | binds
TAAAAGAAACAAGATTAAATTACGTATTTAATAATTTAAGATTAATGTTGTTTAATTTGATTTTTTAAATATTTATCTTTCTTTTGAATTTGATTCTTTAGTTCACTTAAG (double strand) [GmNF-YC4-1 promoter P4] |  |  | no binding
TCCTGAACGAAAGGACAATCCTTAGCCATCATAATGCTATGATCGACTTATTCTGAAGTCATCCGGCCTCGATCCTCTTTTGT (double strand) [OsNF-YC4 promoter P3] | no binding | no binding | 
TGGCTCCCTAGAGCTTTTTGTAAGTTGATCATCGAAGTAGCTAGTTCTCTTCACTTATCAGTCATCACTGTTCTATGTTCTATCTGCATTTTCCTTGATTTTGTACTTTTCCTGAACGAAAGGACAATCCTT (double strand) [OsNF-YC4 promoter P2] | binds | binds | 
